Test results taken from publication PMC5339707, “ACCORD: an assessment tool to determine the orientation of homodimeric coiled-coils” (Scientific Reports, 2017).
“And” between values parts separate entries of the source, which are not always exact repeats. Equal values may be shown once. Read-outs that look alike come from different tables or passages of the source.

B1: His6-SspB-Atg16 (58-130) fusion protein (other, E. coli | S. cerevisiae, UniProt P0AFZ3 1-165, looked up)
chain: MDLSQLTPRRPYLLRAFYEWLLDNQLTPHLVVDVTLPGVQVPMEYARDGQIVLNIAPRAVGNLELANDEVRFNARFGGIPRQVSVPLAAVLAIYARENGAGTMFEPEAAYDEDTSIMNDEEASADNETVMSVIDGDKPDHDDDTHPDDEPPQPPRGGRPALRVVKVSHDDALLNTLAILQKELKSKEQEIRRLKEVIALKNKNTERLNDELISGTIENNVLQQKLSDLKKEHSQLVAR
notes: Stringent starvation protein B (SspB), E. coli, full length, residues 1-165 (M1-K165), amplified from genomic DNA; Autophagy protein 16 (Atg16), S. cerevisiae, coiled-coil domain, residues 58-130 (V58-R130); source: E. coli BL21(DE3), purified (HisTrap, Superdex 200); not shown: His6, N-terminal, kept
B2: His6-SspB-TRIM25 (194-356) fusion protein (other, E. coli | H. sapiens, UniProt P0AFZ3 1-165, looked up)
chain: MDLSQLTPRRPYLLRAFYEWLLDNQLTPHLVVDVTLPGVQVPMEYARDGQIVLNIAPRAVGNLELANDEVRFNARFGGIPRQVSVPLAAVLAIYARENGAGTMFEPEAAYDEDTSIMNDEEASADNETVMSVIDGDKPDHDDDTHPDDEPPQPPRGGRPALRVVKASADLEATLRHKLTVMYSQINGASRALDDVRNRQQDVRMTANRKVEQLQQEYTEMKALLDASETTSTRKIKEEEKRVNSKFDTIYQILLKKKSEIQTLKEEIEQSLTKRDEFEFLEKASKLRGISTKPVYIPEVELNHKLIKGIHQSTIDLKNELKQCIGRLQ
notes: Stringent starvation protein B (SspB), E. coli, full length, residues 1-165 (M1-K165), amplified from genomic DNA; source: E. coli BL21(DE3), purified (HisTrap, Superdex 200); not shown: His6, N-terminal, kept
B3: His6-SspB-NDP52 (141-334) fusion protein (other, E. coli | H. sapiens, UniProt P0AFZ3 1-165, looked up)
chain: MDLSQLTPRRPYLLRAFYEWLLDNQLTPHLVVDVTLPGVQVPMEYARDGQIVLNIAPRAVGNLELANDEVRFNARFGGIPRQVSVPLAAVLAIYARENGAGTMFEPEAAYDEDTSIMNDEEASADNETVMSVIDGDKPDHDDDTHPDDEPPQPPRGGRPALRVVKEVEEIEQHNKELCKENQELKDSCISLQKQNSDMQAELQKKQEELETLQSINKKLELKVKEQKDYWETELLQLKEQNQKMSSENEKMGIRVDQLQAQLSTQEKEMEKLVQGDQDKTEQLEQLKKENDHLFLSLTEQRKDQKKLEQTVEQMKQNETTAMKKQQELMDENFDLSKRLSENEIICNALQRQKERLEGE
notes: as for B2
B4: His6-SspB-SCOC (78-159) fusion protein (other, E. coli | H. sapiens, UniProt P0AFZ3 1-165, looked up)
chain: MDLSQLTPRRPYLLRAFYEWLLDNQLTPHLVVDVTLPGVQVPMEYARDGQIVLNIAPRAVGNLELANDEVRFNARFGGIPRQVSVPLAAVLAIYARENGAGTMFEPEAAYDEDTSIMNDEEASADNETVMSVIDGDKPDHDDDTHPDDEPPQPPRGGRPALRVVKMMNADMDAVDAENQVELEEKTRLINQVLELQHTLEDLSARVDAVKEENLKLKSENQVLGQYIENLMSASSVFQTTDTKSKRK
notes: Stringent starvation protein B (SspB), E. coli, full length, residues 1-165 (M1-K165), amplified from genomic DNA; Short coiled-coil protein (SCOC), human, coiled-coil domain, residues 78-159 (M78-K159); CCD ligated behind SspB in the His6-SspB vector (BamHI at the 5' end); vector holds TEV and thrombin cleavage sites; source: E. coli BL21(DE3), purified (HisTrap, Superdex 200); not shown: His6, …
B5: His6-SspB-MDV1 (231-300) fusion protein (other, E. coli | S. cerevisiae, UniProt P0AFZ3 1-165, looked up)
chain: MDLSQLTPRRPYLLRAFYEWLLDNQLTPHLVVDVTLPGVQVPMEYARDGQIVLNIAPRAVGNLELANDEVRFNARFGGIPRQVSVPLAAVLAIYARENGAGTMFEPEAAYDEDTSIMNDEEASADNETVMSVIDGDKPDHDDDTHPDDEPPQPPRGGRPALRVVKQTLVNSLEFLNIQKNSTLSEIRDIEVEVENLRQKKEKLLGKIANIEQNQLLLEDNLKQIDDRLDFLEEYG
notes: Stringent starvation protein B (SspB), E. coli, full length, residues 1-165 (M1-K165), amplified from genomic DNA; Mitochondrial division protein 1 (MDV1), S. cerevisiae, coiled-coil domain, residues 231-300 (Q231-G300); Seen as a tetramer (main fraction) and a dimer (significant proportion); source: E. coli BL21(DE3), purified (HisTrap, Superdex 200); not shown: His6, N-terminal, kept
B6: His6-SspB-MYO10 (883-933) fusion protein (other, E. coli | human, UniProt P0AFZ3 1-165, looked up)
chain: MDLSQLTPRRPYLLRAFYEWLLDNQLTPHLVVDVTLPGVQVPMEYARDGQIVLNIAPRAVGNLELANDEVRFNARFGGIPRQVSVPLAAVLAIYARENGAGTMFEPEAAYDEDTSIMNDEEASADNETVMSVIDGDKPDHDDDTHPDDEPPQPPRGGRPALRVVKENKQVEEILRLEKEIEDLQRMKEQQELSLTEASLQKLQERRDQELRRLEEE
notes: Stringent starvation protein B (SspB), E. coli, full length, residues 1-165 (M1-K165), amplified from genomic DNA; also called human MYO10 CC; source: E. coli BL21(DE3), purified (HisTrap, Superdex 200)
B7: MBP-NDP52 (197-270) fusion protein (domain or fragment, H. sapiens, UniProt Q13137 197-270, looked up)
chain: KVKEQKDYWETELLQLKEQNQKMSSENEKMGIRVDQLQAQLSTQEKEMEKLVQGDQDKTEQLEQLKKENDHLFL
notes: Modified pMAL vector; source: E. coli BL21(DE3), purified (amylose resin, Q-FF, Superdex 200)
B8: His6-SspB-Ndel1 (8-99) fusion protein (other, E. coli | R. norvegicus, UniProt P0AFZ3 1-165, looked up)
chain: MDLSQLTPRRPYLLRAFYEWLLDNQLTPHLVVDVTLPGVQVPMEYARDGQIVLNIAPRAVGNLELANDEVRFNARFGGIPRQVSVPLAAVLAIYARENGAGTMFEPEAAYDEDTSIMNDEEASADNETVMSVIDGDKPDHDDDTHPDDEPPQPPRGGRPALRVVKDFSSLKEETAYWKELSLKYKQSFQEARDELVEFQEGSRELEAELEAQLVQAEQRNRDLQADNQRLKYEVEALKEKLEHQYAQSYKQVSVLED
notes: Stringent starvation protein B (SspB), E. coli, full length, residues 1-165 (M1-K165), amplified from genomic DNA; Major peak a dimer; source: E. coli BL21(DE3), purified (HisTrap, Superdex 200); not shown: His6, N-terminal, kept
B9: His6-SspB-LRRFIP1 (162-249) fusion protein (other, E. coli | H. sapiens, UniProt P0AFZ3 1-165, looked up)
chain: MDLSQLTPRRPYLLRAFYEWLLDNQLTPHLVVDVTLPGVQVPMEYARDGQIVLNIAPRAVGNLELANDEVRFNARFGGIPRQVSVPLAAVLAIYARENGAGTMFEPEAAYDEDTSIMNDEEASADNETVMSVIDGDKPDHDDDTHPDDEPPQPPRGGRPALRVVKDSLAEVEEKYKKAMVSNAQLDNEKTNFMYQVDTLKDMLLELEEQLAESRRQYEEKNKEFEREKHAHSILQFQFAEVKEALKQREEMLE
notes: Stringent starvation protein B (SspB), E. coli, full length, residues 1-165 (M1-K165), amplified from genomic DNA; CCD ligated behind SspB in the His6-SspB vector (BamHI at the 5' end); vector holds TEV and thrombin cleavage sites; source: E. coli BL21(DE3), purified (HisTrap, Superdex 200); not shown: His6, N-terminal, kept
B10: His6-SspB-APC (2-55) fusion protein (other, E. coli | H. sapiens, UniProt P0AFZ3 1-165, looked up)
chain: MDLSQLTPRRPYLLRAFYEWLLDNQLTPHLVVDVTLPGVQVPMEYARDGQIVLNIAPRAVGNLELANDEVRFNARFGGIPRQVSVPLAAVLAIYARENGAGTMFEPEAAYDEDTSIMNDEEASADNETVMSVIDGDKPDHDDDTHPDDEPPQPPRGGRPALRVVKAAASYDQLLKQVEALKMENSNLRQELEDNSNHLTKLETEASNMKEVLKQLQGSI
notes: Stringent starvation protein B (SspB), E. coli, full length, residues 1-165 (M1-K165), amplified from genomic DNA; Adenomatous polyposis coli protein (APC), human, coiled-coil domain, residues 2-55 (A2-I55); CCD ligated behind SspB in the His6-SspB vector (BamHI at the 5' end); vector holds TEV and thrombin cleavage sites; source: E. coli BL21(DE3), purified (HisTrap, Superdex 200); not shown: …
B11: MBP-MDV1 (231-300) fusion protein (domain or fragment, S. cerevisiae, UniProt P47025 231-300, looked up)
chain: QTLVNSLEFLNIQKNSTLSEIRDIEVEVENLRQKKEKLLGKIANIEQNQLLLEDNLKQIDDRLDFLEEYG
notes: Mitochondrial division protein 1 (MDV1), S. cerevisiae, coiled-coil domain, residues 231-300; Modified pMAL vector; the whole chain is in PDB 5JST; source: E. coli BL21(DE3), purified (amylose resin, Q-FF, Superdex 200)
B12: His6-SspB-ROCK1 (535-709) fusion protein (other, E. coli | H. sapiens, UniProt P0AFZ3 1-165, looked up)
chain: MDLSQLTPRRPYLLRAFYEWLLDNQLTPHLVVDVTLPGVQVPMEYARDGQIVLNIAPRAVGNLELANDEVRFNARFGGIPRQVSVPLAAVLAIYARENGAGTMFEPEAAYDEDTSIMNDEEASADNETVMSVIDGDKPDHDDDTHPDDEPPQPPRGGRPALRVVKLANEKLSQLQKQLEEANDLLRTESDTAVRLRKSHTEMSKSISQLESLNRELQERNRILENSKSQTDKDYYQLQAILEAERRDRGHDSEMIGDLQARITSLQEEVKHLKHNLEKVEGERKEAQDMLNHSEKEKNNLEIDLNYKLKSLQQRLEQEVNEHKVTKARLTDKHQSIEEAK
notes: Stringent starvation protein B (SspB), E. coli, full length, residues 1-165 (M1-K165), amplified from genomic DNA; Rho-associated coiled-coil containing protein kinase 1 (ROCK1), human, coiled-coil domain, residues 535-709 (L535-K709); CCD ligated behind SspB in the His6-SspB vector (BamHI at the 5' end); vector holds TEV and thrombin cleavage sites; source: E. coli BL21(DE3), purified (HisTrap, …)

Experiments:
[1] = target: His6-SspB-Mfn1 (660-735) fusion protein (E. coli | M. musculus) (UniProt P0AFZ3); experiment: SEC-MALS; self-association of His6-SspB-CCD fusion proteins (ACCORD); Superdex 200 10/300 GL, 50 mM Tris pH 8.0, 0.5 mM TCEP, 200 mM NaCl; sample 3-5 mg/ml, 0.5 ml
[2] = target: His6-SspB-TPM1 (1-98) fusion protein (E. coli | G. gallus) (UniProt P0AFZ3); experiment: as above
[3] = target: the molecule itself; experiment: as above
[4] = target: the molecule itself; experiment: as above; remark: listed apart in the source
[5] = target: the molecule itself; experiment: SAXS; MBP fusion proteins in 50 mM Tris pH 8.0, 0.5 mM TCEP, 100 mM NaCl; MBP-NDP52 2.6 mg/ml, MBP-MDV1 9.8 mg/ml; ab initio molecular envelope
[6] = target: the molecule itself; experiment: crystal structure; MBP-MDV1 fusion protein, hanging drop, 295 K, 100 mM sodium acetate pH 4.5, 25% PEG 3350, 100 mM CaCl2, 1.3-1.7 M sodium formate; molecular replacement

Molecule	stoichiometry N [3]	also measured
His6-SspB-Mfn1 (660-735) fusion protein (from UniProt P0AFZ3 1-165; Q811U4 660-735)		stoichiometry N [1]: 4
His6-SspB-TPM1 (1-98) fusion protein (from UniProt P0AFZ3 1-165; P04268 1-98)		stoichiometry N [2]: 2
B1	2	
B2	4	
B3	2	
B4	2	
B5	4 and 2	
B6		stoichiometry N [4]: 2
B7		binding result [5]: binds
B8	2	
B9	2	
B10	2	
B11		binding result [6]: binds
B12	2	
